Measured values: patent US9981005

Target: Skp1-FBXW7 complex (human FBXW7 residues 263-707 with truncated Skp1) (human) (UniProt P63208)
Experiment: isothermal titration calorimetry, Skp1-FBXW7, 25 °C

Sequence of Skp1-FBXW7 complex (human FBXW7 residues 263-707 with truncated Skp1) (human) (chain, as listed by the source limits assumed, chain 1 of 2): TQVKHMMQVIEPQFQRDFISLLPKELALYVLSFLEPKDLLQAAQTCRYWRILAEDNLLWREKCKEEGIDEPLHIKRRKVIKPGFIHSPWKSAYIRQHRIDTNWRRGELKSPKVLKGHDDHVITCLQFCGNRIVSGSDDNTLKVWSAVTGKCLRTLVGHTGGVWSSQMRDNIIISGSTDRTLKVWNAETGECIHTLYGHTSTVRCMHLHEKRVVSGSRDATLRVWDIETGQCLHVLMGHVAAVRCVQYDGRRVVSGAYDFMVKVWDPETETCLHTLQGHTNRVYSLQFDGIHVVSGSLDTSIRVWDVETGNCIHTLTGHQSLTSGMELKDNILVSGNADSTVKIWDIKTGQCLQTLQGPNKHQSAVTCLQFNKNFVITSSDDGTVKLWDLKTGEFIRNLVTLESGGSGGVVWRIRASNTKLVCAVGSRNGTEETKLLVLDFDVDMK
Sequence of Skp1-FBXW7 complex (human FBXW7 residues 263-707 with truncated Skp1) (human) (P63208 whole entry, chain 2 of 2, the tested form may be a part): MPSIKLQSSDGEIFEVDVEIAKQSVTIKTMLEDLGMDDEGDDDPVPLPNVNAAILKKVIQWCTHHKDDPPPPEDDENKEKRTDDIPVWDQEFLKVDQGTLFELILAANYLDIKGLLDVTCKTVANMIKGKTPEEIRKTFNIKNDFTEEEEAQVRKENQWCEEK

## doubly-phosphorylated test peptide VPPpTPPGpSH
  Kd: 1000 nM
